As usually defined, the Kd is a measure of binding affinity in units of concentration.

From paper PMC6034511 come the findings set out here.

The data set deals with HIV-1 RT p66/p51 wild type (HIV-1). As to the kind of experiment: fluorescence polarization. As to conditions: not stated in the held text (SI Experimental section).

With 5'-fluorescein DNA/RNA hybrid, the Kd is 3.5 nM.
